{"source": "patent US20220213456", "key": {"[1]": {"test_system": "T1, OMNI-36 (Blastopirellula marina)", "T1 sequence": "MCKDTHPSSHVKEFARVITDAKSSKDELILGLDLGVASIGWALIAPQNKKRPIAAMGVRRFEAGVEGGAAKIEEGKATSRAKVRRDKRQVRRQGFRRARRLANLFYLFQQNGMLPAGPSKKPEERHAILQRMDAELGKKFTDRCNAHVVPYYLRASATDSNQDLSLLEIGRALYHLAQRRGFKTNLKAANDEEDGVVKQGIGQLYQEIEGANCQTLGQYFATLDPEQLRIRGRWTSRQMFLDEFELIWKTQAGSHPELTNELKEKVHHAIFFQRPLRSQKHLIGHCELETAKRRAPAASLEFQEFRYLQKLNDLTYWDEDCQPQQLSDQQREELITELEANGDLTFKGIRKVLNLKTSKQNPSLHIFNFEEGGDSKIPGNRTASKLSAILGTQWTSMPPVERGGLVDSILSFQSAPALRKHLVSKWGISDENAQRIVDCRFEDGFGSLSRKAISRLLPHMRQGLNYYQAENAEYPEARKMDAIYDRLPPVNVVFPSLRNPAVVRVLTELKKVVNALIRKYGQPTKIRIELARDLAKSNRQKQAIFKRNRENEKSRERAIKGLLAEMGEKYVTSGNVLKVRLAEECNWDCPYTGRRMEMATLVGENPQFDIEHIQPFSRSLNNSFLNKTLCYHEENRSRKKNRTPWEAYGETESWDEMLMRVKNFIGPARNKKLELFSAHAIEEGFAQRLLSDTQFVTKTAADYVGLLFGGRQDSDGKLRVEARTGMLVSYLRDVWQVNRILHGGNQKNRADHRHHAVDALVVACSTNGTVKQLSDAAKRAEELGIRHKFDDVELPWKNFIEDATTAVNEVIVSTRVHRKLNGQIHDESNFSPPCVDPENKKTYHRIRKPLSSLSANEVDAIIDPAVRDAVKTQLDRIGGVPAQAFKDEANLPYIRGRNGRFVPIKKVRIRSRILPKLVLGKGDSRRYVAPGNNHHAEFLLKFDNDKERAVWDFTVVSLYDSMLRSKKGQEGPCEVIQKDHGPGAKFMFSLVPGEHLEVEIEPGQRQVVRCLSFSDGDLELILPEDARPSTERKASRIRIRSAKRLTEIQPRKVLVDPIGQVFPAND", "assay": "cleavage_in_vitro", "details": "TXTL; PAM NNYCCC; V1, V2 tested"}, "[2]": {"test_system": "T2, OMNI-53 (Clostridium sp. AF02-29)", "T2 sequence": "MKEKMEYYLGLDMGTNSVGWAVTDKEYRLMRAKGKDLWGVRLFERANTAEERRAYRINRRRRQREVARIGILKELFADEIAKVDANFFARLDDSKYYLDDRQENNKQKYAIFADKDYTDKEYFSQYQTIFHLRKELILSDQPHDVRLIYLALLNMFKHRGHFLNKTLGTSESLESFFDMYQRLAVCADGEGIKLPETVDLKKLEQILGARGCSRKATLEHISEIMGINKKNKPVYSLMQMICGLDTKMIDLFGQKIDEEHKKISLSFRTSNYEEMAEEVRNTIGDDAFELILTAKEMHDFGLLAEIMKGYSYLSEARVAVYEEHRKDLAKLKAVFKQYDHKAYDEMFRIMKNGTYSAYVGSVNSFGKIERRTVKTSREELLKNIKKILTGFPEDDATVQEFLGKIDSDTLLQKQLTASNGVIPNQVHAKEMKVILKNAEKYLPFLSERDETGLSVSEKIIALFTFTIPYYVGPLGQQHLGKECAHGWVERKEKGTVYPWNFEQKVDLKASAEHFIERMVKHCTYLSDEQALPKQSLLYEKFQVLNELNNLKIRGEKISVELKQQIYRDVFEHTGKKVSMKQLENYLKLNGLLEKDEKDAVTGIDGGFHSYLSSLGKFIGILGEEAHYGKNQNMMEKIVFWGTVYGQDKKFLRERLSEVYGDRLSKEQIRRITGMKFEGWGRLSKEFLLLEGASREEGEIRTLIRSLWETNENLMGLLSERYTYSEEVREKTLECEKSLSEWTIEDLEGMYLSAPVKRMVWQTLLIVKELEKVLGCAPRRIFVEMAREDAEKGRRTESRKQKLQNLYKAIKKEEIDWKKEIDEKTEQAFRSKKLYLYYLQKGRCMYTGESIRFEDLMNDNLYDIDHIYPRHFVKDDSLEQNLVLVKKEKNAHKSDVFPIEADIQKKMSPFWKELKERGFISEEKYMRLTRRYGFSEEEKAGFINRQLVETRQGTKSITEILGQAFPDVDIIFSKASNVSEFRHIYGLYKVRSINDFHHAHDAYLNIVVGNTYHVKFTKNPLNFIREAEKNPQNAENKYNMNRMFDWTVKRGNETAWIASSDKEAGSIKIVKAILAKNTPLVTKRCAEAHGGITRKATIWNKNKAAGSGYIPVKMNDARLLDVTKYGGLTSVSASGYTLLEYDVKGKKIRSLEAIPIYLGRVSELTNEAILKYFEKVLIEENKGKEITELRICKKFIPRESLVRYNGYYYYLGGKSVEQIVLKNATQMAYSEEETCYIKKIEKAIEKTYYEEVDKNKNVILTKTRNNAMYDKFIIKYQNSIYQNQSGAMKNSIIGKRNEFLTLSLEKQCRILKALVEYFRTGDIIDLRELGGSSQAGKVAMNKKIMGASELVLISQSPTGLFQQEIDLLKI", "assay": "cell_activity", "details": "E. coli plasmid depletion; PAM NRTA"}, "[3]": {"test_system": "T2, OMNI-53 (Clostridium sp. AF02-29)", "assay": "cleavage_in_vitro", "details": "TXTL; PAM NRHR (specific NAWA)"}, "[4]": {"test_system": "T3, OMNI-39 (Butyrivibrio sp. AC2005)", "T3 sequence": "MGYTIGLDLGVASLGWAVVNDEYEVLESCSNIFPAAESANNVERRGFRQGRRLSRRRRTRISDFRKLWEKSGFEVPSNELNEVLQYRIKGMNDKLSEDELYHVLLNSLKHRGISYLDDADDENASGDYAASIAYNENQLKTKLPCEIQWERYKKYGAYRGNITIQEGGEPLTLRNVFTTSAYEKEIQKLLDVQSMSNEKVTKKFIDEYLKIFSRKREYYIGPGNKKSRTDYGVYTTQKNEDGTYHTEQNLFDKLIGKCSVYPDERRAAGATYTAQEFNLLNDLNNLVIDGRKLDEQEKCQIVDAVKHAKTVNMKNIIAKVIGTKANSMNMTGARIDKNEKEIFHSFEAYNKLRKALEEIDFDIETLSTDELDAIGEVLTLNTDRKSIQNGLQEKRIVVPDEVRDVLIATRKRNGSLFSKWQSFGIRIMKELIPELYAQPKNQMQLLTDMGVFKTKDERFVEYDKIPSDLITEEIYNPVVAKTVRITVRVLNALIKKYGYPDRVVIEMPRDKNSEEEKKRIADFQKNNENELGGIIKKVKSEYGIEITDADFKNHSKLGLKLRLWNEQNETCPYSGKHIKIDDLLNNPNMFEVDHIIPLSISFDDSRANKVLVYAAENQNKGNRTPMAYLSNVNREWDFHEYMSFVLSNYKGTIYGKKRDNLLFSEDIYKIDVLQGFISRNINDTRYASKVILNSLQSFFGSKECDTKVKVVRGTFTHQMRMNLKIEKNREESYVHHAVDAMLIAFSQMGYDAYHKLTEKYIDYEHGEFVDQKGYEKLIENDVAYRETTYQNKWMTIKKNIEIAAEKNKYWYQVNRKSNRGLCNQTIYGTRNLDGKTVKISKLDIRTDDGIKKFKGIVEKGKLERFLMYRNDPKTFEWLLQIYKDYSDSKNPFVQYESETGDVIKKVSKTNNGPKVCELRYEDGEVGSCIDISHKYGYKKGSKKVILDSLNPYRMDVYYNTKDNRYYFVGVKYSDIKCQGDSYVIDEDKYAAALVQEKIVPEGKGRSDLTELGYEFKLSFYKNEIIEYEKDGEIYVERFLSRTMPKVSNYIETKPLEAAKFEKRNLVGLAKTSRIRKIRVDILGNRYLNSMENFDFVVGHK", "assay": "cell_activity", "details": "E. coli plasmid depletion; PAM NNGYAD (specific NNGYAA)"}, "[5]": {"test_system": "T3, OMNI-39 (Butyrivibrio sp. AC2005)", "assay": "cleavage_in_vitro", "details": "TXTL; PAM NNGHAD (specific NNGYAA)"}, "OMNI-40 (bacterium LF-3) [6]": {"test_system": "T4, OMNI-40 (bacterium LF-3)", "T4 sequence": "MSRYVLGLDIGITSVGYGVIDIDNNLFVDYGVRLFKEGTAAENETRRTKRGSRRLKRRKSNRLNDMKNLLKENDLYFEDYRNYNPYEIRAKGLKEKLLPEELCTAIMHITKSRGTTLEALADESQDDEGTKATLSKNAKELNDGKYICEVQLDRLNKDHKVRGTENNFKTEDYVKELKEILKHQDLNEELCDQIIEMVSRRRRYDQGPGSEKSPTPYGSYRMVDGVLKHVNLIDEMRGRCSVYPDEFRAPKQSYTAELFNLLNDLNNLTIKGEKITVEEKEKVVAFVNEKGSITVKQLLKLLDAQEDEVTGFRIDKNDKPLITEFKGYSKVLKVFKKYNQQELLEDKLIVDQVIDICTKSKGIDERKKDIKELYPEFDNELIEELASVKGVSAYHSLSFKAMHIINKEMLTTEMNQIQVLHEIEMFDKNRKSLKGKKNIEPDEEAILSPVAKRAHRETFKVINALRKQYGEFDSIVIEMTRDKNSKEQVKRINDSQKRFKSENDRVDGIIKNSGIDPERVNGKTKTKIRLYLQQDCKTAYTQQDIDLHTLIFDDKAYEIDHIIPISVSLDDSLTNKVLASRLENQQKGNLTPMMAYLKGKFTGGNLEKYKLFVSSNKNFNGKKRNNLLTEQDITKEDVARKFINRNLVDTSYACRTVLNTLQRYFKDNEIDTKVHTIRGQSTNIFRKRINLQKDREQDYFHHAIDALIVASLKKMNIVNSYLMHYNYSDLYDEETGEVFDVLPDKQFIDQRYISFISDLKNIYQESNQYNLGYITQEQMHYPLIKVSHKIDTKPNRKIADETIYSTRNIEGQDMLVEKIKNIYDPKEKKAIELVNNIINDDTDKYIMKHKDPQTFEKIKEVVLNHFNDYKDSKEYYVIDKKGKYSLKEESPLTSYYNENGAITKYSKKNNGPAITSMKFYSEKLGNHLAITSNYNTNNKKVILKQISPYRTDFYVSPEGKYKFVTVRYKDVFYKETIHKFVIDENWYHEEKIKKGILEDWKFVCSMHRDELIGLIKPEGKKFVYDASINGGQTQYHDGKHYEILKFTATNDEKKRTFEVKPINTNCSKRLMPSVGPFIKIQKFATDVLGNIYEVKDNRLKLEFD", "assay": "cell_activity", "details": "E. coli plasmid depletion; PAM NYGRV (specific NYGAV)"}, "OMNI-40 (bacterium LF-3) [7]": {"test_system": "T4, OMNI-40 (bacterium LF-3)", "assay": "cleavage_in_vitro", "details": "TXTL; PAM NYGRV"}}}
{"sequence": "GGAAGAGCAGAGCCUUGGUCUCGCUGUGGCUUGGAGGGAAUCGUGAAAACGAUUGCUUCGCAAGUCAUAGUAAAGCAAUAGUCAGCGAAAGGUUUGCUCACGGAGCAUUCCGUCGAGUACCCUUUGACGCCUCCCAGCGGGGCGUCUUUUUUU / GGAAGAGCAGAGCCTTGGTCTCNNNNNNNN / NNNNNNNNGAGACCAAGGCTCTGCTCTTCC [OMNI-36 T2 sgRNA V1 ; pbPOS T2 protospacer 8N PAM library]", "values": [{"measurement": "activity (1-depletion score)", "setting": "[1]", "value": 0.99}]}
{"sequence": "GGAAGAGCAGAGCCUUGGUCUCGUUUGAGAACCAUGGAAACAUGGUGAGUGCAAAUAAGGAUUAUCCGAAAUUGUAUGCCCGCAUUGUGCGGCAAUAAAAAGGCUCGAAAGAGUCUUUUU / GGAAGAGCAGAGCCTTGGTCTCNNNNNNNN / NNNNNNNNGAGACCAAGGCTCTGCTCTTCC [OMNI-53 T2 sgRNA V1 ; pbPOS T2 protospacer 8N PAM library]", "values": [{"measurement": "activity (1-depletion score)", "setting": "[2]", "value": 1}, {"measurement": "activity (1-depletion score)", "setting": "[3]", "value": 0.97}]}
{"sequence": "GGAAGAGCAGAGCCUUGGUCUCGUUUUAGUACCUAGAGAAAGAAAUUUCUUUAGACCUACUAAAAUAAGGCUUUAUGCCGAGAUUAAAGGAUGCCGACGGGCAUCCUUUUUU / GGAAGAGCAGAGCCTTGGTCTCNNNNNNNN / NNNNNNNNGAGACCAAGGCTCTGCTCTTCC [OMNI-39 T2 sgRNA V2 ; pbPOS T2 protospacer 8N PAM library]", "values": [{"measurement": "activity (1-depletion score)", "setting": "[4]", "value": 0.99}, {"measurement": "activity (1-depletion score)", "setting": "[5]", "value": 0.95}]}
{"sequence": "GGAAGAGCAGAGCCUUGGUCUCGUUUUGUUACCAUAUGAUUGAAAAUUUAUAUGACCUAACAAAACAAGGGUUUAUCCCGGACUCGGCUCUUCGGAGCCUUUUU / GGAAGAGCAGAGCCTTGGTCTCNNNNNNNN / NNNNNNNNGAGACCAAGGCTCTGCTCTTCC [OMNI-40 T2 sgRNA V2 ; pbPOS T2 protospacer 8N PAM library]", "values": [{"measurement": "activity (1-depletion score)", "setting": "OMNI-40 (bacterium LF-3) [6]", "value": 0.95}, {"measurement": "activity (1-depletion score)", "setting": "OMNI-40 (bacterium LF-3) [7]", "value": 0.97}]}
